Drawing on patent US20230416362A1 (published 2023), this text covers EC50 for 3 molecules.

Experiment in all cases: ELISA
(In general: ELISA stands for enzyme-linked immunosorbent assay.)

For one assay, the target named is cyno TIGIT IgV domain.
Assay [1] deals with T1, recombinant human TIGIT IgV domain (UniProt Q495A1 22-141).
T1 chain: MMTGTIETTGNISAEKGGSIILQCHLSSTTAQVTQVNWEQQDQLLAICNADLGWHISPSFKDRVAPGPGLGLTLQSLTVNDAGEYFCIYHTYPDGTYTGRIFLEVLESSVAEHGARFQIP

The target of assay [2] is T2, recombinant mouse TIGIT IgV domain (UniProt P86176 29-145).
T2 chain: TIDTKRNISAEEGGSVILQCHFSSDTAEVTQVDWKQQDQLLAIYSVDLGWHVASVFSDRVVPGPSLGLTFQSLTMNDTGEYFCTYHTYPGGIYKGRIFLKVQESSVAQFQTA

Sequence of cyno TIGIT IgV domain (Q495A1 other isoform, or with tags, fused parts or gaps): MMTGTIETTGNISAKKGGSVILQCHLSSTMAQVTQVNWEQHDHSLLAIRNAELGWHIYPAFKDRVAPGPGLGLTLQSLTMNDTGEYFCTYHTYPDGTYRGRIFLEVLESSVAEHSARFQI

B1: 7D4 (antibody, V domains shown)
VH: QVQLKHSGAELVRPGTSVKMSCKASGYTFTNYWIGWAKQRPGHGLEWIGDIYPGSSFTNSNEKFKGKATLTADKSSSTAYMQFSSLTSEDSAIYYCAKLGRGYWYFDVWGTGTSVTVSA
VL: DIVLTQSPAIMSASLGEEITLTCSASSSVSYIHWYQQKSGTSPKLLIYTTSNLASGVPSRFSGSGSGTFYSLTISSVEAEDAADYYCHQWSRYPTFGGGTKLEIK
A word on the EC50: it is the concentration at which the effect is half-maximal. Consider B1, for which the EC50 in the assay with cyno TIGIT IgV domain was 21.3 nM; in assay [1] it was 0.13 nM.

B2: 3A9 (antibody, V domains shown)
VH: QVQLQQPGAELVRPGSSVKLSCKASGYTFTSYWMHWVKQRPIQGLEWIGNIDPSDSATHYNQKFKDKATLTVDKSSSTAYMHLSSLTSEDSAVYYCARTGIDYGSSYFDYWGQGTILTVSS
VL: DIVLTQSPASLAVSLGQRATISCRASQSVSTSSYSYIHWYQQKPGQPPKLLIKYASNLESGVPARFSGSGSGTDFTLNIHPVEEEDTATYYCQHNWEIPRTFGGGTKLEIK
With B2, the 50% effective concentration (EC50) in assay [2] worked out at 172 nM; with cyno TIGIT IgV domain, 4.46 nM; in assay [1] it was 0.38 nM.

B3: 2C9 (antibody, V domains shown)
VH: DIQLKQSGAELVRPGASVKLSCKASGYTFTDSYINWVKQRPGQGLEWIARFYPGSGNTYYNEKFKGKATLTAEKSSSTAYMQLSSLTSEDSAVYFCAREAWLLFYGMDYWGQGTTVTVSS
VL: DIVLTQSPAIMSASPGEKVTISCSANSSVSYMYWYQQKPGSSPKPWIYRTSNLASGVPARFSGSGSGTSYSLTISSMEAEDAATYYCQQYHSYPLTFGAGTKLELK
With B3, the results for the 50% effective concentration (EC50) (in assay [2]; with cyno TIGIT IgV domain; in assay [1]) were 138 nM, 69.9 nM and 0.23 nM, respectively.
